Legend:
[1] = molecular target: T1, Peptide 32 (mouse); test: peptide microarray; Sp M; IgG 1 µg/ml
T1 peptide: QQQQQPPPQAPPPPP

[2] = molecular target: T2, Peptide 33 (mouse); test: peptide microarray; Sp M; IgG 1 µg/ml
T2 peptide: QQQQPPPQAPPPPPP

[3] = molecular target: T3, Peptide 34 (mouse); test: peptide microarray; Sp M; IgG 1 µg/ml
T3 peptide: QQQPPPQAPPPPPPP

[4] = molecular target: T4, Peptide 35 (mouse); test: peptide microarray; Sp M; IgG 1 µg/ml
T4 peptide: QQPPPQAPPPPPPPP

[5] = molecular target: T5, Peptide 36 (mouse); test: peptide microarray; Sp M; IgG 1 µg/ml
T5 peptide: QPPPQAPPPPPPPPP

[6] = molecular target: T6, Peptide 37 (mouse); test: peptide microarray; Sp M; IgG 1 µg/ml
T6 peptide: PPPQAPPPPPPPPPP

[7] = molecular target: T7, Peptide 38 (mouse); test: peptide microarray; Sp M; IgG 1 µg/ml
T7 peptide: PPQAPPPPPPPPPPQ

[8] = molecular target: T8, Peptide 39 (mouse); test: peptide microarray; Sp M; IgG 1 µg/ml
T8 peptide: PQAPPPPPPPPPPQP

[9] = molecular target: T9, Peptide 40 (mouse); test: peptide microarray; Sp M; IgG 1 µg/ml
T9 peptide: QAPPPPPPPPPPQPP

[10] = molecular target: T10, Peptide 42 (mouse); test: peptide microarray; Sp M; IgG 1 µg/ml
T10 peptide: PQPPPQGQPPPPPPP

[11] = molecular target: T11, Peptide 43 (mouse); test: peptide microarray; Sp M; IgG 1 µg/ml
T11 peptide: QPPPQGQPPPPPPPL

[12] = molecular target: T12, Peptide 44 (mouse); test: peptide microarray; Sp M; IgG 1 µg/ml
T12 peptide: PPPQGQPPPPPPPLP

[13] = molecular target: T13, Epitope 1 (human, cyno); test: peptide microarray; Sp H; IgG 10 µg/ml
T13 peptide: QQQQPPPPPPPPPPP

[14] = molecular target: T14, Peptide 1 (human, cyno); test: peptide microarray; Sp H; IgG 10 µg/ml
T14 peptide: QQQQQQQQPPPPPPP

[15] = molecular target: T15, Peptide 2 (human, cyno); test: peptide microarray; Sp H; IgG 10 µg/ml
T15 peptide: QQQQQQQPPPPPPPP

[16] = molecular target: T16, Peptide 3 (human, cyno); test: peptide microarray; Sp H; IgG 10 µg/ml
T16 peptide: QQQQQQPPPPPPPPP

[17] = molecular target: T17, Peptide 10 (human); test: peptide microarray; Sp H; IgG 10 µg/ml
T17 peptide: QPLLPQPQPPPPPPP

[18] = molecular target: T18, Peptide 11 (human); test: peptide microarray; Sp H; IgG 10 µg/ml
T18 peptide: PLLPQPQPPPPPPPP

[19] = molecular target: T19, Peptide 12 (human); test: peptide microarray; Sp H; IgG 10 µg/ml
T19 peptide: LLPQPQPPPPPPPPP

[20] = molecular target: T20, Peptide 13 (human); test: peptide microarray; Sp H; IgG 10 µg/ml
T20 peptide: LPQPQPPPPPPPPPP

[21] = molecular target: T21, Peptide 16 (human); test: peptide microarray; Sp H; IgG 10 µg/ml
T21 peptide: PQPPPPPPPPPPGPA

[22] = molecular target: T1, Peptide 32; test: peptide microarray; Sp M; IgG 10 µg/ml
[23] = molecular target: T2, Peptide 33; test: peptide microarray; Sp M; IgG 10 µg/ml
[24] = molecular target: T3, Peptide 34; test: peptide microarray; Sp M; IgG 10 µg/ml
[25] = molecular target: T4, Peptide 35; test: peptide microarray; Sp M; IgG 10 µg/ml
[26] = molecular target: T5, Peptide 36; test: peptide microarray; Sp M; IgG 10 µg/ml
[27] = molecular target: T6, Peptide 37; test: peptide microarray; Sp M; IgG 10 µg/ml
[28] = molecular target: T7, Peptide 38; test: peptide microarray; Sp M; IgG 10 µg/ml
[29] = molecular target: T8, Peptide 39; test: peptide microarray; Sp M; IgG 10 µg/ml
[30] = molecular target: T9, Peptide 40; test: peptide microarray; Sp M; IgG 10 µg/ml
[31] = molecular target: T10, Peptide 42; test: peptide microarray; Sp M; IgG 10 µg/ml
[32] = molecular target: T11, Peptide 43; test: peptide microarray; Sp M; IgG 10 µg/ml
[33] = molecular target: T12, Peptide 44; test: peptide microarray; Sp M; IgG 10 µg/ml
[34] = molecular target: T13, Epitope 1; test: peptide microarray; Sp C1; IgG 10 µg/ml
[35] = molecular target: T14, Peptide 1; test: peptide microarray; Sp C1; IgG 10 µg/ml
[36] = molecular target: T15, Peptide 2; test: peptide microarray; Sp C1; IgG 10 µg/ml
[37] = molecular target: T16, Peptide 3; test: peptide microarray; Sp C1; IgG 10 µg/ml
[38] = molecular target: T22, Peptide 4 (human, cyno); test: peptide microarray; Sp C1; IgG 10 µg/ml
T22 peptide: QQQQQPPPPPPPPPP

[39] = molecular target: T23, Peptide 18 (cyno); test: peptide microarray; Sp C1; IgG 10 µg/ml
T23 peptide: QQQPPPPPPPPPPPP

[40] = molecular target: T24, Peptide 21 (cyno); test: peptide microarray; Sp C1; IgG 10 µg/ml
T24 peptide: AQPMLPQPQPPPPPP

[41] = molecular target: T25, Peptide 22 (cyno); test: peptide microarray; Sp C1; IgG 10 µg/ml
T25 peptide: QPMLPQPQPPPPPPR

B1: ATL_0005335 (antibody, V domains shown)
VH: EVQLVESGGGLVKPGGSLRLSCAASGFTFNKAWMNWVRQAPGKGLEWVGRIKSGIDGGTTDYAAPVQGRFTISRDDSKNTVYLQMNSLNTEDTAVYYCIPPPYYYYYGLDVWGQGTTVTVSS
VL: QSALTQPASVSGSPGQSITISCTGTSSDIGSYNLVSWYQQHPGNAPKPLIYEGSKRPSGVSARFSGSKSGNTASLTISGLQPEDEADYYCSSYAGFNTLVFGGGTKVTVL
notes: human IgG1; also called ATL_5335
Binder B1 has a corrected fluorescence intensity [1] of 0, a corrected fluorescence intensity [2] of 600 and a corrected fluorescence intensity [3] of 754. The corrected fluorescence intensity [4] was 758, the corrected fluorescence intensity [5] was 778 and the corrected fluorescence intensity [6] was 742. It also gave a corrected fluorescence intensity [7] of 194, a corrected fluorescence intensity [8] of 0 and a corrected fluorescence intensity [9] of 0. For the same binder, the corrected fluorescence intensity [10] was 612, the corrected fluorescence intensity [11] was 120 and the corrected fluorescence intensity [12] was 143. The corrected fluorescence intensity [13] was 3840, the corrected fluorescence intensity [14] was 729 and the corrected fluorescence intensity [15] was 2100. For the same binder, the corrected fluorescence intensity [16] was 3190, the corrected fluorescence intensity [17] was 5410 and the corrected fluorescence intensity [18] was 6680. The corrected fluorescence intensity [19] was 8520, the corrected fluorescence intensity [20] was 9010 and the corrected fluorescence intensity [21] was 415. For the same binder, the corrected fluorescence intensity [22] was 286, the corrected fluorescence intensity [23] was 3090 and the corrected fluorescence intensity [24] was 5800. It also gave a corrected fluorescence intensity [25] of 7820, a corrected fluorescence intensity [26] of 8300 and a corrected fluorescence intensity [27] of 7370. It also gave a corrected fluorescence intensity [28] of 3520, a corrected fluorescence intensity [29] of 1880 and a corrected fluorescence intensity [30] of 0. For the same binder, the corrected fluorescence intensity [31] was 2280, the corrected fluorescence intensity [32] was 899 and the corrected fluorescence intensity [33] was 1250. The corrected fluorescence intensity [34] was 3340, the corrected fluorescence intensity [35] was 0 and the corrected fluorescence intensity [36] was 2230. For the same binder, the corrected fluorescence intensity [37] was 3540, the corrected fluorescence intensity [38] was 4320 and the corrected fluorescence intensity [39] was 4510. For the same binder, the corrected fluorescence intensity [40] was 2740 and the corrected fluorescence intensity [41] was 374.

B2: ATL_0005331 (antibody, V domains shown)
VH: EVQLVESGGGLVKPGGSLRLSCAASGFTFNKAWMNWVRQAPGKGLEWVGRIKSGIDGGTTDYAAPVQGRFTISRDDSKNTVYLQMNSLNTEDTAVYYCIPPPYYYYYGLDVWGQGTTVTVSS
VL: QSALTQPRSVSGSPGQSITISCTGTSSDVGSYNLVSWFQQHPGKAPKLIIYEVNKRPSGVPDRFSGSKSGNTASLTVSGLQAEDEADYYCGSYAGTNNVFGTGTKLTVL
notes: human IgG1; also called ATL_5331; Human IgG1 ATL_0005331
Work on B2 yielded a corrected fluorescence intensity [1] of 0, a corrected fluorescence intensity [2] of 0 and a corrected fluorescence intensity [3] of 162. It also gave a corrected fluorescence intensity [4] of 181, a corrected fluorescence intensity [5] of 190 and a corrected fluorescence intensity [6] of 180. For the same binder, the corrected fluorescence intensity [7] was 0, the corrected fluorescence intensity [8] was 0 and the corrected fluorescence intensity [9] was 0. For the same binder, the corrected fluorescence intensity [10] was 41.5, the corrected fluorescence intensity [11] was 14.5 and the corrected fluorescence intensity [12] was 0. The corrected fluorescence intensity [13] was 2950, the corrected fluorescence intensity [14] was 0 and the corrected fluorescence intensity [15] was 1340. It also gave a corrected fluorescence intensity [16] of 1670, a corrected fluorescence intensity [17] of 2250 and a corrected fluorescence intensity [18] of 2950. The corrected fluorescence intensity [19] was 3490, the corrected fluorescence intensity [20] was 3960 and the corrected fluorescence intensity [21] was 145. The corrected fluorescence intensity [22] was 0, the corrected fluorescence intensity [23] was 633 and the corrected fluorescence intensity [24] was 1540. For the same binder, the corrected fluorescence intensity [25] was 2410, the corrected fluorescence intensity [26] was 2740 and the corrected fluorescence intensity [27] was 3160. It also gave a corrected fluorescence intensity [28] of 825, a corrected fluorescence intensity [29] of 842 and a corrected fluorescence intensity [30] of 234. The corrected fluorescence intensity [31] was 884, the corrected fluorescence intensity [32] was 997 and the corrected fluorescence intensity [33] was 1740. For the same binder, the corrected fluorescence intensity [34] was 4160, the corrected fluorescence intensity [35] was 378 and the corrected fluorescence intensity [36] was 1760. For the same binder, the corrected fluorescence intensity [37] was 2290, the corrected fluorescence intensity [38] was 3150 and the corrected fluorescence intensity [39] was 3100. For the same binder, the corrected fluorescence intensity [40] was 1030 and the corrected fluorescence intensity [41] was 112.
